As usually defined, the stoichiometry N is the number of molecules, sites or subunits per partner or assembly.

Test [1] deals with Mycobacterium leprae small heat shock protein (sHsp18) (Mycobacterium leprae). Put plainly: SEC; as a1 but after extended dialysis against PBS; data not shown. (SEC sorts molecules by how far they enter the pores of the column.)
The target is the same in test [2]. Put plainly: native gel or EMSA; non-denaturing 7.5% polyacrylamide gel of MagneHis-purified sHsp18, against high molecular weight markers, Coomassie stain. For orientation: Mobility shift assays separate free from complexed probe on a gel.
Test [3] has the same target. As to the kind of experiment: SEC; Sephacryl column; sHsp18 purified by denaturing method, dialysed against 50 mM PBS with 200 mM NaCl, pH 7.2, 4°C, 6 hrs, acetone precipitated, resuspended in PBS.

Turning to “Mycobacterium leprae small heat shock protein (sHsp18) (natural protein)”, the stoichiometry N in test [1] came out at 9; in test [2], 9; in test [3], 6.

These data come from PMC2629775.
